Columns and labels:
[1] = biological target: extracellular domain portion of LEPR protein expressed with a C-terminal human Fc tag (hLEPR.hFc) (human); test: ELISA, 500 nM Ab, 10 nM hLEPR.hFc to coated hLeptin
[2] = biological target: Mycx2-hLepR(ecto)-GPI anchored, on HEK293/hLEPR-GPI cells (human) (UniProt P48357); test: FACS, 70 nM Ab, HEK293/hLEPR-GPI
[3] = biological target: human LEPR extracellular domain expressed with a C-terminal mouse IgG2a Fc tag (hLEPR.mFc) (human); test: SPR, mAb captured, 25C
[4] = biological target: human LEPR extracellular domain expressed with a C-terminal myc-myc-hexahistidine tag (hLEPR.mmh) (human) (UniProt P48357); test: SPR, mAb captured, 25C
[5] = biological target: macaca fascicularis LEPR extracellular domain expressed with a C-terminal myc-myc-hexahistidine tag (mfLEPR.mmh) (Macaca fascicularis); test: SPR, mAb captured, 25C
[6] = biological target: full length human LEPR (amino acids 1-1165 of P48357, Isoform B), on cells (human) (UniProt P48357); test: FACS, 70 nM Ab, HEK293/Stat3-luc/hLEPR-FL
[7] = biological target: Mycx2-hLepR(ecto)-GPI anchored, on HEK293/hLEPR-GPI cells (human) (UniProt P48357); test: FACS, 10 nM Ab, HEK293/hLEPR-GPI, no added Leptin
[8] = biological target: Mycx2-hLepR(ecto)-GPI anchored, on HEK293/hLEPR-GPI cells (human) (UniProt P48357); test: FACS, 10 nM Ab, HEK293/hLEPR-GPI, 1 uM Leptin
[9] = biological target: human LEPR extracellular domain expressed with a C-terminal mouse IgG2a Fc tag (hLEPR.mFc) (human); test: SPR, mAb captured, 37C
[10] = biological target: human LEPR extracellular domain expressed with a C-terminal myc-myc-hexahistidine tag (hLEPR.mmh) (human) (UniProt P48357); test: SPR, mAb captured, 37C
[11] = biological target: macaca fascicularis LEPR extracellular domain expressed with a C-terminal myc-myc-hexahistidine tag (mfLEPR.mmh) (Macaca fascicularis); test: SPR, mAb captured, 37C
[12] = biological target: human LEPR Ig-CRH2-FNIII-MMH (human) (UniProt P48357); test: Luminex, myc-captured LEPR protein
[13] = biological target: human LEPR CRH1-Ig (D2,D3)-MMH (human) (UniProt P48357); test: Luminex, myc-captured LEPR protein
[14] = biological target: human LEPR extracellular domain expressed with a C-terminal myc-myc-hexahistidine tag (hLEPR.mmh) (human) (UniProt P48357); test: Luminex, myc-captured LEPR protein
[15] = biological target: human LEPR CRH1 (D1,D2,D3)-MMH (human) (UniProt P48357); test: Luminex, myc-captured LEPR protein
[16] = biological target: human LEPR Ig (D3)-MMH (human) (UniProt P48357); test: Luminex, myc-captured LEPR protein
[17] = biological target: human LEPR CRH1 (D1)-MMH (human) (UniProt P48357); test: Luminex, myc-captured LEPR protein
[18] = biological target: human LEPR CRH1 (D1,D2)-MMH (human) (UniProt P48357); test: Luminex, myc-captured LEPR protein
[19] = biological target: human LEPR FNIII-MMH (human) (UniProt P48357); test: Luminex, myc-captured LEPR protein
[20] = biological target: human LEPR CRH2-MMH (human) (UniProt P48357); test: Luminex, myc-captured LEPR protein

Sequence of Mycx2-hLepR(ecto)-GPI anchored, on HEK293/hLEPR-GPI cells (human) (P48357 22-839): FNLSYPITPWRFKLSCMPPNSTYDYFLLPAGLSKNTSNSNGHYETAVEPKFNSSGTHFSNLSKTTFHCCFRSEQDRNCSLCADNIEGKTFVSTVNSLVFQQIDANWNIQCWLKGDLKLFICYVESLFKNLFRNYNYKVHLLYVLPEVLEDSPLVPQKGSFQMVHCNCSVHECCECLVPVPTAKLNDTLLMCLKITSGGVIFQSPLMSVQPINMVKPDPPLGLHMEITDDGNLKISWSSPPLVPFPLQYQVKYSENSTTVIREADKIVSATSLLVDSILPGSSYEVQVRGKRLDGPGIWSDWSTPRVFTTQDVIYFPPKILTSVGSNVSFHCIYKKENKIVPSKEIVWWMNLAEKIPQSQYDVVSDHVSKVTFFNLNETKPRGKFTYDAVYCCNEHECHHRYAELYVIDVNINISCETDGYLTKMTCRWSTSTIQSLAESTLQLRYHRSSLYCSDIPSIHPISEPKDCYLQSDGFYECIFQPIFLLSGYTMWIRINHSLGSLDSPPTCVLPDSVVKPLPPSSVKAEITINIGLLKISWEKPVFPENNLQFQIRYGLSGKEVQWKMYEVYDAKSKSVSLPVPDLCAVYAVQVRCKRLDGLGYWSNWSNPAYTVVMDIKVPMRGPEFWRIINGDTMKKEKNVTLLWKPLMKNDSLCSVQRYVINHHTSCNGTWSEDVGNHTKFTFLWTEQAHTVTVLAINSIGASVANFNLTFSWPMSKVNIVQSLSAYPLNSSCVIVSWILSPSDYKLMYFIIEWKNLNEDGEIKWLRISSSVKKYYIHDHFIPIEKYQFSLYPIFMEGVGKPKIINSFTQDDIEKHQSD
Sequence of human LEPR extracellular domain expressed with a C-terminal myc-myc-hexahistidine tag (hLEPR.mmh) (human) (P48357 other isoform, or with tags, fused parts or gaps): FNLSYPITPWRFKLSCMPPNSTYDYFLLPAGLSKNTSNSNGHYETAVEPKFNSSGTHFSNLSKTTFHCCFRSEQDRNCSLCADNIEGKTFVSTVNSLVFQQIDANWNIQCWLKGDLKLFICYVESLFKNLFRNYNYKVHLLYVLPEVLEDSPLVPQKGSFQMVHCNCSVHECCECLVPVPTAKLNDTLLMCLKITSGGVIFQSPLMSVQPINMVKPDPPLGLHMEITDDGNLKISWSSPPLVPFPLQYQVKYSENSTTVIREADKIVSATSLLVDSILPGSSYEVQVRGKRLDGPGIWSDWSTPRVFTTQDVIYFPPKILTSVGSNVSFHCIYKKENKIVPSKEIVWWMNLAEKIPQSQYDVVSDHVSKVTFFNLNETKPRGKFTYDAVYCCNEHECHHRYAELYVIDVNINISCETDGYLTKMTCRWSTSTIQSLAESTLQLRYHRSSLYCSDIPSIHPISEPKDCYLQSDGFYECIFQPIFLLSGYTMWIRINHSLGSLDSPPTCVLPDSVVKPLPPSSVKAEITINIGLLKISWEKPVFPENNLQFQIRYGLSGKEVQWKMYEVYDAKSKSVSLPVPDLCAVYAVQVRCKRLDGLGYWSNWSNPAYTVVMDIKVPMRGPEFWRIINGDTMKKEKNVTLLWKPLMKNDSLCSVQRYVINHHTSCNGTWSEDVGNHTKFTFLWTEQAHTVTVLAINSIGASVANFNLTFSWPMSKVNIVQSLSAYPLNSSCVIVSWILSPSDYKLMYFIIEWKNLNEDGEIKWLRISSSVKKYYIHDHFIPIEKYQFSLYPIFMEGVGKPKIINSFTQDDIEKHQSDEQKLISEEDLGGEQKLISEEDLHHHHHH
Sequence of extracellular domain portion of LEPR protein expressed with a C-terminal human Fc tag (hLEPR.hFc) (human) (chain, as listed by the source limits assumed): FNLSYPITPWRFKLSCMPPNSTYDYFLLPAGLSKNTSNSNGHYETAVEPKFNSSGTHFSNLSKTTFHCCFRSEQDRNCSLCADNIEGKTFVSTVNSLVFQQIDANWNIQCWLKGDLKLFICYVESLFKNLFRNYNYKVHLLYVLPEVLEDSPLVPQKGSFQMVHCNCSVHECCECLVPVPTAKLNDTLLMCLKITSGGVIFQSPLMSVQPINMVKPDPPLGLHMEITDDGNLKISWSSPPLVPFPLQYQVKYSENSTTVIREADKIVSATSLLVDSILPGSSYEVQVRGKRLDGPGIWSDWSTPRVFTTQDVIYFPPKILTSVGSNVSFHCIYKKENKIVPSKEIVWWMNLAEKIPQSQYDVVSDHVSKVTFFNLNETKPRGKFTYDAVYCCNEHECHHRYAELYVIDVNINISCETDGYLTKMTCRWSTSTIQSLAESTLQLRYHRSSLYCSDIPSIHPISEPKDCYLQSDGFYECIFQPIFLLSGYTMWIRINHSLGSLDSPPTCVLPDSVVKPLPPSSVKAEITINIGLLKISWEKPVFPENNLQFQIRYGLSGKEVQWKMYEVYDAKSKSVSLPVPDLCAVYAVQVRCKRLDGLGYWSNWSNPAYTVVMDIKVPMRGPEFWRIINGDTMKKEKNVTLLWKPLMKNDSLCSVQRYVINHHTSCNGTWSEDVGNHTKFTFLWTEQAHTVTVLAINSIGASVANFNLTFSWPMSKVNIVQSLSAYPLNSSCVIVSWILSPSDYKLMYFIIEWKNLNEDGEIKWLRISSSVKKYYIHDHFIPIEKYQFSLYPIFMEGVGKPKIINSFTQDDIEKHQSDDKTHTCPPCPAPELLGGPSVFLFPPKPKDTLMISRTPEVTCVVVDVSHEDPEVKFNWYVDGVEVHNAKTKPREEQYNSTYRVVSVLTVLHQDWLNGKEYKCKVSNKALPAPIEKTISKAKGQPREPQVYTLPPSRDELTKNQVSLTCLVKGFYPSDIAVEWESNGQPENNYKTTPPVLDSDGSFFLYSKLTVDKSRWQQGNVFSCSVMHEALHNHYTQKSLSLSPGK
Sequence of human LEPR extracellular domain expressed with a C-terminal mouse IgG2a Fc tag (hLEPR.mFc) (human) (chain, as listed by the source limits assumed): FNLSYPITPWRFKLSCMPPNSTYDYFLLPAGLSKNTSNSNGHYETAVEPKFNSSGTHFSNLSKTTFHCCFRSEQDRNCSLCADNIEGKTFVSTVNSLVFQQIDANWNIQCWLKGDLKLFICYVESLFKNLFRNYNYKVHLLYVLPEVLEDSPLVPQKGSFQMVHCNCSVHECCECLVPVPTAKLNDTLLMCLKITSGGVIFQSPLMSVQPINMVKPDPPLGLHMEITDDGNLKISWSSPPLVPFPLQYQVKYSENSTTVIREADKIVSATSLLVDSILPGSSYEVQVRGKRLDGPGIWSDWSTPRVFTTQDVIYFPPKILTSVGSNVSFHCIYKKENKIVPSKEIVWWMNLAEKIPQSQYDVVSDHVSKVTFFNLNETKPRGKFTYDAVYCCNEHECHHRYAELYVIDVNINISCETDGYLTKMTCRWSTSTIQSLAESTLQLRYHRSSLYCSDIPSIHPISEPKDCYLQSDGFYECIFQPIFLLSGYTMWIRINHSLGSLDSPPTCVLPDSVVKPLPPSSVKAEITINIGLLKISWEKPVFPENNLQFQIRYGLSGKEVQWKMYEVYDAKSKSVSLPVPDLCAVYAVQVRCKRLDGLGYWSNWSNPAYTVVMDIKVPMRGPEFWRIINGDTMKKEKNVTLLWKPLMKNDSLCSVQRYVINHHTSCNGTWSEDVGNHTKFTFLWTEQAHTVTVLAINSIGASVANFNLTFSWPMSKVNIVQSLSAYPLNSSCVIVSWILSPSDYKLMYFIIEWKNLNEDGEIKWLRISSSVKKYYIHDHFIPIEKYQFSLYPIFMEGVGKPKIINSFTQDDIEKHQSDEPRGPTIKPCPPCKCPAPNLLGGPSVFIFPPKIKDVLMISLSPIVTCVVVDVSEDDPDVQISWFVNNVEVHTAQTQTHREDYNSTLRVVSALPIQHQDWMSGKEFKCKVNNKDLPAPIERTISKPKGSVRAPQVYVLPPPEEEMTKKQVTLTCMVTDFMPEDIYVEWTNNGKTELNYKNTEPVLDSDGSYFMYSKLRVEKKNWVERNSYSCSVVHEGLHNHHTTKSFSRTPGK
Sequence of macaca fascicularis LEPR extracellular domain expressed with a C-terminal myc-myc-hexahistidine tag (mfLEPR.mmh) (Macaca fascicularis) (Q9MYL0 other isoform, or with tags, fused parts or gaps): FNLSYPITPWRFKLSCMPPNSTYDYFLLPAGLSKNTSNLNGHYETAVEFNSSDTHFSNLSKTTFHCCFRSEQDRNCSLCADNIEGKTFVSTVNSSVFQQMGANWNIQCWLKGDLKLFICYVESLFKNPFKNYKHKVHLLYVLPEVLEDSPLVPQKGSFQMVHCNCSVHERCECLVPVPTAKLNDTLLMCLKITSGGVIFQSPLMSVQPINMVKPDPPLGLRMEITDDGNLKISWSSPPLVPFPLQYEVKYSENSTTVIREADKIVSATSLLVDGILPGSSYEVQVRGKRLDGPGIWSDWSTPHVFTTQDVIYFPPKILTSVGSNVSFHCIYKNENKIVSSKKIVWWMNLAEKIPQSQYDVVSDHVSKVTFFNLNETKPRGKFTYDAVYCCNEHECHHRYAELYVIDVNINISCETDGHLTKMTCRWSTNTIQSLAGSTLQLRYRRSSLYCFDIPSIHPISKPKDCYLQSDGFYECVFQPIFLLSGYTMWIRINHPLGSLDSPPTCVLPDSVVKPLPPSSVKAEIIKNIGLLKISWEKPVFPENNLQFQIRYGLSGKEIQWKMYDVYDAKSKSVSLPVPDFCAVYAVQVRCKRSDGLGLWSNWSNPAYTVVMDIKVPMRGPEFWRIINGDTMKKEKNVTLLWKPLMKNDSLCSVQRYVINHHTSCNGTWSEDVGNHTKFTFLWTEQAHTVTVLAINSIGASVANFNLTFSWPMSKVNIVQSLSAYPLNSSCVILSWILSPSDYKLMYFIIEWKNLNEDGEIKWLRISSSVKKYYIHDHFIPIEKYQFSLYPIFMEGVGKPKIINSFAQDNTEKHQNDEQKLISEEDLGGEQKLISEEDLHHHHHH
Sequence of human LEPR CRH1 (D1,D2,D3)-MMH (human) (P48357 22-427 limits assumed): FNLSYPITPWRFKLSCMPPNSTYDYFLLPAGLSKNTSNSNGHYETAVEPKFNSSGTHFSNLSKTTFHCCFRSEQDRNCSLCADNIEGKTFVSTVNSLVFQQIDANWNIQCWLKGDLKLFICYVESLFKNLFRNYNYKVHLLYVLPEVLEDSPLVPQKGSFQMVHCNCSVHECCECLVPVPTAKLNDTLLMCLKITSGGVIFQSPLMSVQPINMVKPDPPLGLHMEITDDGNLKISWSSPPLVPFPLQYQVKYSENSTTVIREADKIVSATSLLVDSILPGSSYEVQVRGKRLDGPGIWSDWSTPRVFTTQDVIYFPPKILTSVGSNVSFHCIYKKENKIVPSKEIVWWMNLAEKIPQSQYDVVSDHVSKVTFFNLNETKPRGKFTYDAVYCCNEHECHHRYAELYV

Row | Substance | % blockade [1] | Binding Ratio [2] | 100 nM hLEPR-mFc Bound (RU) [3] | 100 nM hLEPR-MMH Bound (RU) [4] | 100 nM mfLEPR.MMH Bound (RU) [5] | Binding Ratio [6] | Binding Ratio [7] | Binding Ratio [8] | 100 nM hLEPR-mFc Bound (RU) [9] | 100 nM hLEPR-MMH Bound (RU) [10] | 100 nM mfLEPR.MMH Bound (RU) [11] | Luminex MFI [12] | Luminex MFI [13] | Luminex MFI [14] | Luminex MFI [15] | Luminex MFI [16] | Luminex MFI [17] | Luminex MFI [18] | Luminex MFI [19] | Luminex MFI [20]
1 | Mouse IgG2a Isotype control (antibody) | 32% | – | – | – | – | – | – | – | – | – | – | – | – | – | – | – | – | – | – | –
2 | Isotype Control mAb (antibody) | -3% | 2 fold | -2 RU | 4 RU | 0 RU | 2 fold | 6 fold | 4 fold | 1 RU | 6 RU | 1 RU | – | – | – | – | – | – | – | – | –
3 | Comparator mAb (Fab9F8 described in Fazeli et al. 2006 and Carpenter et al. 2012) (antibody) | 99% | – | – | – | – | – | 2350 fold | 112 fold | – | – | – | 7110 MFI | 27 MFI | 3910 MFI | -57 MFI | 10 MFI | -14 MFI | 19 MFI | 73 MFI | 9400 MFI
